Each block holds one binder with its values, some of them ahead of it.
Experiments:
CHMP3_S75C = target: T1, CHMP3_S75C (human, UniProt Q9Y3E7 9-183, S75C); test: cross-linking
T1 sequence (looked up): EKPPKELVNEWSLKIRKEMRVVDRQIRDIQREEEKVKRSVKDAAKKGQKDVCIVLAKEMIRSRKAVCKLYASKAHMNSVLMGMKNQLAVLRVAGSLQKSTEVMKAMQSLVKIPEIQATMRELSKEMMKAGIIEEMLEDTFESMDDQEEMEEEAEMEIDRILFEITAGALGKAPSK

CHMP3_V110C = target: T2, CHMP3_V110C (human, UniProt Q9Y3E7 9-183, V110C); test: cross-linking
T2 sequence (looked up): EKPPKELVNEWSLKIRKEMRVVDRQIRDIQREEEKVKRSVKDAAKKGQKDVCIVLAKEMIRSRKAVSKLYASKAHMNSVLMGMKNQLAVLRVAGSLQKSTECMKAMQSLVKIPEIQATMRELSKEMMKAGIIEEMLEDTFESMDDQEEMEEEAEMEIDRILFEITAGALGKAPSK

[1] = target: T3, CHMP3 full length (residues 1-222) (human, UniProt Q9Y3E7 1-222); test: cryo-EM structure
T3 sequence (looked up): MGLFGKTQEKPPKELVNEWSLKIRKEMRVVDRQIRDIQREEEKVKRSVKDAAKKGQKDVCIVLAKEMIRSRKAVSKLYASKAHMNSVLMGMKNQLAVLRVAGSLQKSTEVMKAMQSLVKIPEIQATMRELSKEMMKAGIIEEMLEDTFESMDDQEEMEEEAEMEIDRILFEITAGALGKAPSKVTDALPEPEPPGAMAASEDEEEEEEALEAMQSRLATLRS

cryo-EM structure = target: the molecule itself; test: cryo-EM structure
[2] = target: T3, CHMP3 full length (residues 1-222); test: negative staining EM of polymer
[3] = target: T4, CHMP3_K112A, K119A, K132A, K136A (human, UniProt Q9Y3E7 9-183, K112A | K119A | K132A | K136A); test: negative staining EM of polymer
T4 sequence (looked up): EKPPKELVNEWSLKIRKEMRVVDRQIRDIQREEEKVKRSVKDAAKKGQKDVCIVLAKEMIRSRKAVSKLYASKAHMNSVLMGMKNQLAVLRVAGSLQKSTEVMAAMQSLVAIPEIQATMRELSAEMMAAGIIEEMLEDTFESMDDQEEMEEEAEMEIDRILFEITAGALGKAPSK

binding result (CHMP3_S75C): binds
B1: CHMP2A_D57C (domain or fragment, human, UniProt O43633 9-161, looked up)
chain: KTPEELLRQNQRALNRAMRELDRERQKLETQEKKIIADIKKMAKQGQMCAVRIMAKDLVRTRRYVRKFVLMRANIQAVSLKIQTLKSNNSMAQAMKGVTKAMGTMNRQLKLPQIQKIMMEFERQAEIMDMKEEMMNDAIDDAMGDEEDEEESD

binding result (CHMP3_V110C): binds
B2: CHMP2A_N18C (domain or fragment, human, UniProt O43633 9-161, looked up)
chain: KTPEELLRQCQRALNRAMRELDRERQKLETQEKKIIADIKKMAKQGQMDAVRIMAKDLVRTRRYVRKFVLMRANIQAVSLKIQTLKSNNSMAQAMKGVTKAMGTMNRQLKLPQIQKIMMEFERQAEIMDMKEEMMNDAIDDAMGDEEDEEESD

binding result [1]: binds
B3: CHMP2AΔC (C-terminally truncated CHMP2A, residues 1-161), MBP removed (domain or fragment, human, UniProt O43633 1-161, looked up)
chain: MDLLFGRRKTPEELLRQNQRALNRAMRELDRERQKLETQEKKIIADIKKMAKQGQMDAVRIMAKDLVRTRRYVRKFVLMRANIQAVSLKIQTLKSNNSMAQAMKGVTKAMGTMNRQLKLPQIQKIMMEFERQAEIMDMKEEMMNDAIDDAMGDEEDEEESD
binding result (cryo-EM structure): binds

binding result [2]: binds
binding result [3]: binds
B4: CHMP2AΔC (residues 1-161) wild type, MBP fusion as used for tube formation without membrane coating (domain or fragment, human, UniProt O43633 1-161, looked up)
chain: MDLLFGRRKTPEELLRQNQRALNRAMRELDRERQKLETQEKKIIADIKKMAKQGQMDAVRIMAKDLVRTRRYVRKFVLMRANIQAVSLKIQTLKSNNSMAQAMKGVTKAMGTMNRQLKLPQIQKIMMEFERQAEIMDMKEEMMNDAIDDAMGDEEDEEESD

— publication doi:10.1101/2022.04.12.487901 (bioRxiv, 2022)
